Changes are numbered by the printed parent chain. Blank lines part the entries; values can stand above or below the binder they belong to.
Tests used:
[1] = target: T1, CD123-Fc recombinant protein (human, UniProt P26951 19-305); assay: flow cytometry of T cells electroporated with CAR mRNA, stained with CD123-Fc + PE-anti-hIgG-Fc; Mock 1.68
T1 construct: construct not described; not shown: Fc part
T1 sequence (looked up): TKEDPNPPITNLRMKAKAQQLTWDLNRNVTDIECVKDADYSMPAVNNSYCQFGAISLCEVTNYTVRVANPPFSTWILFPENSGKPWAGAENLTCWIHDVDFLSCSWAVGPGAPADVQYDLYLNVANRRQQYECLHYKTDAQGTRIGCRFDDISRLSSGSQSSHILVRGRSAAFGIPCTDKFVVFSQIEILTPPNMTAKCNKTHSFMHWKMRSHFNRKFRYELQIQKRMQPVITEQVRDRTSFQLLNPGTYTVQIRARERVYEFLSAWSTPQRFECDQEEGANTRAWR
Experimental: (§1) The CD123 CAR mRNAs obtained in Example 35 above were each introduced into T cells by electroporation according to the following procedures: T cells were collected, washed with the Opti-MEM medium, and resuspended at 1×10e⁷/mL with the Opti-MEM medium; 10 μg of RNA and 100 μL of T cells were aliquoted, mixed well, and electroporated under the following parameters (BTX machine): 500 V, 0.7 ms; the cells were then transferred to a pre-warmed medium and cultured at 37° C. The binding of CD123 CART cells to the CD123-Fc recombinant protein was detected by FACS staining. […] Empty vector (Mock) was a control T cell without CAR molecule. A549 tumor cells were electroporated with different amounts of CD123 mRNA. The electroporation procedure was the same as described above, and only the parameters were changed, with the parameters 300 V, 0.5 ms used. CD123 expression in A549 tumor cells was detected by FACS staining of isotype or anti-CD123 antibodies and A549 cells electroporated with different amounts of CD123 mRNA. […] The cytotoxicity of CD123 CART cells against tumor cells was detected in an in vitro cytotoxicity assay. Tumor cells expressing EGFP or EGFP-A549 cells electroporated with different amounts of tumor antigen were seeded at 3000 cells/100 μL/well into a flat-bottom 96-well plate; CART cells were diluted to a proper concentration and seeded to the 100 μL/well tumor cells according to different E/T ratios (e.g., 10:1, 3:1, or 1:1), and the co-culture plate was placed into the IncuCyte S3 machine and scanning parameters were set. After scanning for 3 days, the total green object integrated intensity (GCU×μm²/well) was analyzed to calculate the killing efficiency.

[2] = target: T1, CD123-Fc recombinant protein; assay: flow cytometry of T cells electroporated with CAR mRNA, stained with CD123-Fc + PE-anti-hIgG-Fc; Mock 0.36
Experimental: as §1

percent of cells in the CD123-Fc positive gate [1]: 85.4%
B1: anti-CD123 scFv-C14 (scFv)
scFv: DIRMTQSPSSLSASVGDRVTITCQASQDITNYLNWYHQKPGKAPKLLIYDASNLETGVPSRFSGGGSGTDFTFTISSLQSEDIGTYYCQQYDDLPLTFGGGTKVEIKGGGGSGGGGSGGGGSQVQLQESGPGLVKPSETLSLTCTVSGGSISSSSHYWGWIRQPPGKGLEWIGSIYYSGSTYYNPSLKSRVTISVDTSKNQFSLKLSSVTAADTAVYYCARRVWVWPTYGMDVWGQGTTVTVSS
notes: On mRNA-electroporated T cells as CAR

percent of cells in the CD123-Fc positive gate [2]: 81.8%
B2: anti-CD123 scFv-C23 (scFv)
scFv: DILMTQSPSSLSASVGDRVTITCQASQDISNYLNWYQQKPGKAPKLLIYDASNLETGVPSRFSGSGSGTGFSFTISSLQPEDFATYYCQQYGNLPLTFGGGTKLEIKGGGGSGGGGSGGGGSQVQLVQSGAEVKKPGASVKVSCKASGYTFTSYGISWVRQAPGQGLEWMGWISAYNGNTNYAQKLQGRVTMTTDTSTSTAYMELRSLRSDDTAVYYCARDRIAAAEVYYYYGMDVWGQGTTVTVSS
notes: as for B1

percent of cells in the CD123-Fc positive gate [1]: 94.2%
B3: anti-CD123 scFv-C16 (scFv)
scFv: QSVVTQPPSASGTPGQRVTISCSGSSSNIEGNTVSWYQQFPGAAPKLLIYSNSYRASGVPDRFSGSKSGTSASLAISELQSEDEADYYCSAWDDSLNGPVFGGGTELTVLGGGGSGGGGSGGGGSQVQLQESGGGLVQPGGSLRLSCAASGFTFSSYSMNWVRQAPGKGLEWVSYISSSSSTIYYADSVKGRFTISRDNAKNSLYLQMNSLRAEDTAVYYCARDIYGDWDYYYYGMDVWGQGTTVTVSS
notes: as for B1

percent of cells in the CD123-Fc positive gate [2]: 79.5%
B4: anti-CD123 scFv-C24 (scFv)
scFv: DIQMTQSPSSLSASVGDRVTITCRASQSISSYLNWYQQKPGKAPKLLIHAASSLQSGVPSKFSGSGSGTDFTLTISSLQPEDFATYYCLQYKTYPYTFGPGTKVEIKGGGGSGGGGSGGGGSQVQLVQSGAEVKKPGSSVKVSCKASGGTFSSYAISWVRQAPGQGLEWMGGIIPIFGTANYAQKFQGRVTITADESTSTAYMELSSLRSEDTAVYYCARDSPSGSTNYYYYYMDVWGKGTTVTVSS
notes: as for B1

percent of cells in the CD123-Fc positive gate [2]: 65.4%
B5: anti-CD123 scFv-C19 (scFv)
scFv: DIRMTQSPSSLSASVGDRVTITCRASQDIRHDLGWYQQKPGKAPSLLMYATSTLQSGVPSRFSGSGSGTHFTLTISSLKPEDSATYYCLQDGDYPLTFGGGTKLEIKGGGGSGGGGSGGGGSQVQLVQSGGGVVQPGRSLRLSCAASGFTFSSYGMHWVRQAPGKGLEWVAVISYDGSNKYYADSVKGRFTISRDNSKNTLYLQMNSLRAEDTAVYYCAKDPSLIQYYYYGMDVWGQGTMVTVSS
notes: as for B1

percent of cells in the CD123-Fc positive gate [2]: 47.8%
B6: anti-CD123 scFv-C27 (scFv)
scFv: EIVLTQSPGTVSLSPGERATLSCRASQRVSATYLAWYQQKPGQAPRLLMYGGSRRATGIPDRFSGSGSGTDFTLTIRRLEPEDSAVYYCQQYGSSPLTFGGGTKLEIKGGGGSGGGGSGGGGSQVQLVQSGSELKKPGASVKVSCKASGYTFTSYGISWVRQAPGQGLEWMGWISAYNGNTNYAQKLQGRVTMTTDTSTSTAYMELRSLRSDDTAVYYCARDPYDDYGGNSRDEEDAFDIWGQGTTVTVSS
notes: as for B1

percent of cells in the CD123-Fc positive gate [2]: 78.6%
B7: anti-CD123 scFv-C21 (scFv)
scFv: QSVLTQPPSASGTPGQRVTISCSGSSSNVGGNPVYWYRQVPTAAPKLLVYGHNQRPPRDPDRFSGSKSGTSASLAISGLRSEDEADYYCAAWDDSLSGWVFGGGTELTVLGGGGSGGGGSGGGGSEVQLVESGGGLVQPGRSLRLSCAASGFTFDDYAMHWVRQAPGKGLEWVSGISWNSGSIGYADSVKGRFTISRDNAKNSLYLQMNSLRAEDTALYYCAKGRYVDIVATINDAFDIWGQGTMVTVSS
notes: as for B1

percent of cells in the CD123-Fc positive gate [1]: 87.8%
B8: anti-CD123 scFv-C18 (scFv)
scFv: QSALTQPASVSGSPGQSITISCTGTSSDVGGYNYVSWYQQHPGKAPKLMIYDVSNRPSGVSNRFSGSKSGNTASLTISGLQAEDEADYYCSSYTSSSTLFVFGTGTELTVLGGGGSGGGGSGGGGSQVQLQESGPGLVKPSQTLSLTCTVSGGSISSGDYYWSWIRQSPGKGLEWIGYIHSTGTTYYNPSLKSRLTISLDTSKNQFSLKLNSVTAADTAVYYCARGGVGTIFNYWGQGTLVTVSS
notes: as for B1

percent of cells in the CD123-Fc positive gate [1]: 32.3%
B9: anti-CD123 scFv-C10 (scFv)
scFv: SYELTQPPSVSVAPGKTARITCGGNNIGSKSVHWYQQKPGQAPVLVVYDDSDRPSGIPERFSGSNSGNTATLTISRVEAGDEADYYCQVWDSSSDHWVFGGGTKLTVLGGGGSGGGGSGGGGSQVQLVQSGAEVKKPGSSVKVSCKASGGTFSSYAISWVRQAPGQGLEWMGGIIPIFGTANYAQKFQGRVTITADESTSTAYMELSSLRSEDTAVYYCAREKWGYYGDYYYGMDVWGQGTTVTVSS
notes: as for B1

percent of cells in the CD123-Fc positive gate [1]: 97.5%
B10: anti-CD123 scFv-C17 (scFv)
scFv: QSALTQPASVSGSLGQSITISCTGTSSDVGTYDYVSWYQQHPGKAPKLMIYDVTYRPSGVSHRFSGSKSGNTASLTISGLQADDEADYYCQQYNNWPPRYTFGQGTKVEIKGGGGSGGGGSGGGGSQVQLVQSGAEVEKPGASVKLSCTASGYNFNSYYMHWVRLTPGQGLEWMGLINPTNGRTTYAQKFQGRVTMTGDTSTRTVYLALSSLRSEDSALYYCARGSPPHIFDPDFDYWGQGTLVTVSS
notes: as for B1

percent of cells in the CD123-Fc positive gate [1]: 38%
B11: anti-CD123 scFv-C11 (scFv)
scFv: QSVVTQPPSASGTPGQRVTISCSGSSSNIGSNYVYWYQQLPGTAPKLLIYRNNQRPSGVPDRFSGSKSGTSASLAISGLRSEDEADYYCAAWDDSLSGYVFGTGTKLTVLGGGGSGGGGSGGGGSEVQLVESGGGLVQPGRSLRLSCTASGFTFGDYAMSWVRQAPGKGLEWVGFIRSKAYGGTTEYAASVKGRFTISRDDSKSIAYLQMNSLKTEDTAVYYCTRDIGYYGSGSYSPFDYWGQGTLVTVSS
notes: On mRNA-electroporated T cells as CAR; also called anti-CD123-C11

percent of cells in the CD123-Fc positive gate [2]: 21.6%
B12: anti-CD123 scFv-C29 (scFv)
scFv: B11 scFv with S2P, V4L, L107V, Q128H
notes: as for B1

percent of cells in the CD123-Fc positive gate [1]: 85.7%
B13: anti-CD123 scFv-C13 (scFv)
scFv: DVVMTQTPLSLPVTLGQPASISCRSSQGLVFSDGVTYLNWFQQRPGQSPRRLIYKVSNRDSGVPDRFSGSGSGTDFTLKISRVEAEDVGIYYCMQGTHWPHTFGQGTKLEIKGGGGSGGGGSGGGGSEVQLVESGGGLVKPGGSLRLSCAASGFTFSSYSMNWVRQAPGKGLEWVAFISHDASKKFYADSVKGRFTLSRDNSKNTLYLEMNSLGAEDTALYYCGRDRNWGFSDFWGQGTLVTVSS
notes: as for B1

percent of cells in the CD123-Fc positive gate [2]: 73.4%
B14: anti-CD123 scFv-C26 (scFv)
scFv: QSVLTQPPSASGTPGQRVTISCSGSRSNIGSNTVSWYQQFPGTAPKLLIYLNNQRPSGVPDRFSGSKSGTSASLAISGLQSEDEAEYYCATWDDDLNGVFGGGTKLTVLGGGGSGGGGSGGGGSEVQLVESGGGLVQPGGSLRLSCAASGFTLSNFEMNWVRQAPGRGLEWVSYISATTSATSYADSVKGRFTISRDNAKNSLYLQMNSLRAEDTAVYYCARVRDGYNFGYYYYYMDVWGKGTTVTVSS
notes: as for B1

percent of cells in the CD123-Fc positive gate [1]: 97.3%
B15: anti-CD123 scFv-C15 (scFv)
scFv: DIQLTQSPSTLSASVGDRVTISCRASQSISSWLAWYQHKPGKAPKLLIYKTSALEDGVPSRFSGSGSGTEFTLTISSLQPDDFATYFCLHYGSYTFGQGTKVDIKGGGGSGGGGSGGGGSEVQLVESGGGLVNPGGSLRLSCEASGFTFSDYYISWIRQAPGKGLEWISYISGSSTYTDFADSVKGRFTISRDNAKNTVFLQMNSLRAEDTAVYYCARDRRGRFDPWGQGTLVTVSS
notes: as for B1

percent of cells in the CD123-Fc positive gate [2]: 80.7%
B16: anti-CD123 scFv-C30 (scFv)
scFv: AIRLTQSPSSLSASVGDRVTITCQASQNINNYLNWYQQKSGKAPKLLIYDASNLEAGVPSRFSGSASGTDFTFTISSLQPEDIATYYCQQNDNLPLTFGQGTRLEIKGGGGSGGGGSGGGGSEVQLVESGGGVVRPGGSLRLSCAASGFTFGDYGMSWVRQAPGKGLEWVSGINWNGGSTGYADSVKGRFTISRDNAKNSLYLQMNSLRAEDTALYYCARDRAPDYGDYLQVGTTDYWGQGTLVTVSS
notes: as for B1

Source: patent publication US20250381223A1 (UTC THERAPEUTICS SHANGHAI, published 2025)
